Assay: soluble on expression in E. coli; label from the status in PepcDB or PDB records

Sequence | soluble on expression in E. coli
MSSVKRSLKQEIVTQFHCSAAEGDIAKLTGILSHSPSLLNETSENGWTALMYAARNGHPEIVQFLLEKGCDRSIVNKSRQTALDIAVFWGYKHIANLLATAKGGKKPWFLTNEVEECENYFSKTLLDRKSEKRNNSDWLLAKESHPATVFILFSDLNPLVTLGGNKESFQQPEVRLCQLNYTDIKDYLAQPEKITLIFLGVELEIKDKLLNYAGEVPREEEDGLVAWFALGIDPIAAEEFKQRHENCYFLHPPMPALLQLKEKEAGVVAQARSVLAWHSRYKFCPTCGNATKIEEGGYKRLCLKEDCPSLNGVHNTSYPRVDPVVIMQVIHPDGTKCLLGRQKRFPPGMFTCLAGFIEPGETIEDAVRREVEEESGVKVGHVQYVACQPWPMPSSLMIGCLALAVSTEIKVDKNEIEDARWFTREQVLDVLTKGKQQAFFVPPSRAIAHQLIKHWIRINPNL | soluble
GEKGTTGTGNAALDNIFERKSVRTYLNKGVEKEKIDLMLRAGMSAPSGKDVRPWEFVVVSDRAKLDSMAAALPYAKMLTQARNAIIVCGDSARSFYWYLDCSAAAQNILLAAESMGLGAVWTAAYPYEDRMEVVRKYTHLPENILPLCVIPFGYPATKEQPKQKYDEKKIHYNQY | soluble
GMKQSKKIIITCAVTGSIHTPTMSPYLPITPEEIVKEGVAAAEAGAAMLHLHARDPLNGRPSQDPDLFMRFLPQLKERTDAILNITTGGGLGMSLDERLAPARAARPEVASMNMGSLNFNISQAAAKFDTFKFDWERPYLAGTRDFILSNTFSQIERGMTELGASGTRFEFECYDVGHLYNLAHFVDRKLVEPPFFLQCVFGILGGIGADPENLLHMRTIADRLFGQDYYLSVLAAGRHQMPFVTMSAILGGNVRVGLEDSLYSGKGQLATSNAEQVRKIRRIIEELSLDIATPDEARAMLKTKGANETSF | soluble
MAHHHHHHMLRIGRTLLAEVTTINSTTASVSGRLIRIRKKSKWIDRRSTRVPHNGKDIWYFGDQPSCALCHIRFRYKQDYEAHKESELHVNRLRWVETMNWWRETGEPAYLKASNEQWEWFEQHVLPTKAQEMGCTLDEARRVYRQAIMTETPTWHRPLQCPTVKQEVQEPRDQRWPASPKW | not soluble
MGSDKIHHHHHHMALDQDGIQKVQKISTGIERLDDLFYGGFDRNDNVVVRGNNFSQKRSFIYSFIKKSANSGIGVVLVDFDFPSEGIMADLVRSGTNTDMVHILDGFAKPFQISAPSNTEMLDDPGNIPSVLKQITSTVQKMDEYVFVMLSATRYLIAKDQNTDRFFVQLINMNRKRSLVSIYAVDDFVPEDRSEWFAYLMDSALHFRNAGARAYLRVLTLKRIRTKEWVRIYPEEGTFTLGSFNVERIK | not soluble
MSLAARQTVTDVDSFSKELMTASPDLLGSMVKAFAEALMGAEVDGICNAEYGEISPERVNRRNGYRAREWDTRAGTIELAVPKLRQGSYFPEWLLTRRRRAEQALISVVATSYLLGVSTRRVDKLVEQLGVAHISKSQVSVLAKHLDTQVEAFRSRPLDAGPYRFVQADALTMKVREDGRVINVHCLLAVGVNGDGHREILGLDVVSSEDGAGWLAFFRGLVARGLSGVRLVTSDAHRGLVNAIGSTLPGASWQRCRTHYLRDLLTMTPKSSQPWVATLVRTVFDQADANEVGGQFDRVTEALSEKLPKAADHLSGAKADLLAFTTYPREVWRQIWSSNPQERLNKEIRRRTDVVGIFPDRDAIIRLVGAVLAEQHDEWIETHRYFGLEILAKVDATNKKSDTPEIGVTEGHHHHHH | soluble
MSLAEPIESGKQYVELTSAVPVAVPGKIEVIELFWYGCPHCYAFEPTINPWVEKLPSDVNFVRIPAMFGGPWDAHGQLFITLDTMGVEHKVHAAVFEAIQKGGKRLTDKNDMADFVATQGVNKDDFLKTFDSFAVKGKIAQYKELAKKYEVTGVPTMIVNGKYRFDLGSAGGPEKTLQVADQLIDKERAAAKAEGHHHHHH | soluble
MSLTTIKNIESFVYRYPLSKPVITSFGVMNNRPMLILKITDNNGMYGWGEVWCNFPLTGAEHRAKLIDNIFKPLLANFDIITPEKTYEYLVSKTKILSIQSGEPGPIAQCIAGIDIAVHDLIGKVENISLWKKFGGNKNIIPCYASGINPTKPEVTVKDAIKKGYSSFKLKIGFGIKKDLGNIKEIKNILPEKSSLMVDANQAWNLNEAIEACRLLEDLNLCWLEEPIPANSEIKEWIHLKDSTKITLAAGENFNSHREFSSFFQNKVFGYLQPDIAKWGGFTECSKLIKNIIQNKITYCPHYLGGGIGLVASAHLLSASNGKGILEVDINDNPLRSDIVGDIFEKNSGFATLSDIPGLGFEPNLKTISKYLVAHEGHHHHHH | soluble
MGSSHHHHHHGSLPPREDAARVARFVTHVSDWGALATISTLEAVRGRPFADVLSLSDGPPGAGSGVPYFYLSPLQLSVSNLQENPYATLTMTLAQTNFCKKHGFDPQSPLCVHIMLSGTVTKVNETEMDIAKHSLFIRHPEMKTWPSSHNWFFAKLNITNIWVLDYFGGPKIVTPEEYYNVTVQ | soluble
SSSLTSENAETKVGVFWDVEECPVPDGVEPSVVCENIKLALEKKGYRPCNVSIRVYGERTNKFKDDFLLADIMFLPAGDEGARFMRMCNDFFCWGNDNRKSTLMVMSRDSTEFASSFVMYKNLNFNILVAQPENVDRKCPVCRKPLEMIITDEWVWESLSAGGDPLPKTQEEPDLSNSCH | soluble
RIVLQTSAHTLGDVVVTGYQTLERRKLTAAISKVEVSDAMVGAAKSIDQALTGQIAGVSVTNTSGAPGSPAKIRIRGTASMNGTQDPLWVLDGIPLEGTDIPKMDNKSSDNDIVNIGQSSIAGLSPNDIESITILKDAAATAIYGARAANGVIVVTTKRGKTGK | not soluble
MNKVVLLCRPGFEKECAAEITDKAGQREIFGFARVKENAGYVIYECYQPDDGDKLIRELPFSSLIFARQWFVVGELLQHLPPEDRITPIVGMLQGVVEKGGELRVEVADTNESKELLKFCRKFTVPLRAALRDAGVLANYETPKRPVVHVFFIAPGCCYTGYSYSNNNSPFYMGIPRLKFPADAPSRSTLKLEEAFHVFIPADEWDERLANGMWAVDLGACPGGWTYQLVKRNMWVYSVDNGPMAQSLMDTGQVTWLREDGFKFRPTRSNISWMVCDMVEKPAKVAALMAQWLVNGWCRETIFNLKLPMKKRYEEVSHNLAYIQAQLDEHGINAQIQARQLYHDREEVTVHVRRIWAAVGGRRDER | soluble
MSLKNENKMIIYQVFTRLFGNNNNHCIYNGDISQNGCGKMADFTAKALGEIKKLGATHIWYTGIIEHASQTDYRRYNIRPDHPAIVKGKAGSPYAIKDYYDVDPDLATDVPGRMKEFENLVSRTHRAGLKVIIDFVPNHVARQYHSDAQPDGTTQLGANDDPNYSFSPYNNFYYIPQSELHGQFDMTGNALEPYHEFPAKATGNNRFDAYPNINDWYETVKLNYGVDYQNGGTCHFSPTPDTWTKMLDILLFWSSKNIDGFRCDMAEMVPVEFWEWAIPQVKQEYPNIIFIAEVYNPHEYKNYLFRGKFDFLYDKVGLYDTLRNVACGYDSATAITRSWQSLGGIEKRMLNFLENHDEQRIASDFFAGDPRKGVPALIVSACMNTNPMMIYFGQEFGEMGMDSEGFSGRDGRTTIFDYWSVDTIRRWRNEGKFDGKMLTEEQKHLYAIYQRVLTLCNEEQAISNGVFFDLMYANENGWRFNEHKQYTFMRKYKNELLFIVVNFDNQPVNVAINVPSHAFDFLQIPQFDSYKAVDLLTDKVEEISLLPYKATEIALGAYTGKILKIKEGHHHHHH | soluble
MGAASCEDEELEFKLVFGEEKEAPPLGAGGLGEELDSEDAPPCCRLALGEPPPYGAAPIGIPRPPPPRPGMHSPPPRPAPSPGTWESQPARSVRLGGPGGGAGGAGGGRVLECPSIRITSISPTPEPPAALEDNPDAWGDGSPRDYPPPEGFGGYREAGAQGGGAFFSPSPGSSSLSSWSFFSDASDEAALYAACDEVESELNEAASRFGLGSPLPSPRASPRPWTPEDPWSLYGPSPGGRGPEDSWLLLSAPGPTPASPRPASPCGKRRYSSSGTPSSASPALSRRGSLGEEGSEPPPPPPLPLARDPGSPGPFDYVGAPPAESIPQKTRRTSSEQAVALPRSEEPASCNGKLPLGAEESVAPPGGSRKEVAGMDYLAVPSPLAWSKARIGGHSPIFRTSALPPLDWPLPSQYEQLELRIEVQPRAHHRAHYETEGSRGAVKAAPGGHPVVKLLGYSEKPLTLQMFIGTADERNLRPHAFYQVHRITGKMVATASYEAVVSGTKVLEMTLLPENNMAANIDCAGILKLRNSDIELRKGETDIGRKNTRVRLVFRVHVPQGGGKVVSVQAASVPIECSQRSAQELPQVEAYSPSACSVRGGEELVLTGSNFLPDSKVVFIERGPDGKLQWEEEATVNRLQSNEVTLTLTVPEYSNKRVSRPVQVYFYVSNGRRKRSPTQSFRFLPVICKEEPLPDSSLRGFPSASATPFGTDMDFSPPRPPYPSYPHEDPACETPYLSEGFGYGMPPLYPQTGPPPSYRPGLRMFPETRGTT | soluble
MFMEVSLTSLPAHVMNALDAIWEGSIADSLESETLEFKEDPSCAGRGKQHGNPQAALIEKLIDEAVCLANGDAGTGHIVVGIKDKIGGPEAFTGTTFDTEKIAKKIFDGTRPNLRPEVHEVRYQNNRLIVIYIPEALSLYSRSKGQTSKRVGSHCEPLSEEQRRAIAATRAHADYSNGISEFNVDDIAADTIQEVRRLLKTKRAQSGIDTSLPTTTNGLLRELGLIDNYGALKRAGAILLLPAPEGQLSIRHFWRSFPGIDPEVTDYNQPLLIALSSLKRRITENANKEIKRIQFSDGQEIAVSAFPQTAVDEVVTNAIIHRDWRLSRPVVIDQSPQTLKVWSPGSLPVGVTPNRLLTTQSIPRNSRLMSAMRMLGLAEESSRGFDRIWAALLGSGRDIPDVHTEDTFVEVILHSGNPDESFIKALHELSLSFNPDMLHSVNTLIVLWHLWTSPVISLKQARVKTQTSSKEATELMFALESNGLLTQIHNTDEWFLSEKARKTTNYYQSETIPQSSVQTWVEEKLSSGSPISAAEIAESIGMPRPEITEILRNLRRAGKAHIDPSGPQRGSGTRWIKGT | not soluble
QVQSVEVMRDSYGVPHVFADSHYGLYYGYGYAVAQDRLFQMDMARRSFVGTTAAVLGPGEQDAYVKYDMQVRQNFTPASIQRQIAALSKDERDIFRGYADGYNAYLEQVRRRPELLPKEYVDFDFQPEPLTDFDVVMIWVGSMANRFSDTNLEVTALAMRQSLEKQHGPERGRALFDELLWINDTTAPTTVPAPAA | soluble
MTTLEILRSGPLALVEDLGRAGLAHLGVGRSGAADRRSHTLANRLVANPDDWATVEVTFGGFSARVRGGDVDIAVTGADTDPTVNGIMVGTNSIHHVRDGQVISLGTPRAGLRTYLAVRGGVCVEPVLGSRSYDVMSAIGPSPLRAGDVLPVGEHTDDYPELDQAPVAAIEEHLVELRVVPGPRDDWLVDPDALVHTIWMASNRSDRVGMRLQGRPLQHRWPDRQLPGEGVTRGAIQVPPNGLPVILGPDHPITGSYPVVGVITDEDIDKVAQIRPGQYVRLHWARPRSRLPGQGVTQAW | soluble
MARTEIWLRLMYVGDLYGEAMLNMANSLIRQPQINRTHLQEAGLTARQAERFLQLPAGVLDETLRWLELPQHHFLCADSEIYPPQLRAIDDYPGAIFIDGDPACLHTCQLAVVGSRSHSWYGERWGRLLCESLAKSGLTITSGLARGIDGVAHNAAVSMGGKSVAVLGNGLAKIYPRRHAMLAENLIATGGAVVSEFPLSTPPLPQHFPRRNRIISGLSKGVLVIEAALRSGSLVTARCALEQGRDVFALPGPIGSPGSEGTHWLIKQGATLVTTPEDILENLQYGLHWLPTTAENSLYSLNQDEAALPFPELLANVGDEVTPVDVVAERAGQPVPAVVAQLLELELAGWIAAVPGGYVRLRRASHVRRTNVFV | not soluble
